One molecule from article PMC12921663, “NanoBondy Reaction through NeissLock Anhydride Allows Covalent Immune Cell Decoration” (Bioconjugate Chemistry, 2026) can be followed below.

Assay [1] addresses T1, endogenous human CD45 at the cell surface (Homo sapiens, UniProt P08575-4).
T1 construct: CD45, human, endogenous; also called CD45RO; source: endogenous, on YTS and NK92 cells and on primary human CD8+ T cells
The assay is described as follows: flow cytometry on cells; nanobodies incubated with Expi293F, NK92 or YTS cells; detected with anti-VHH-Alexa Fluor 647. To be noted: one partner purified. Background: In flow cytometry, cells or beads pass a laser one at a time.

The target of assay [2] is T2, CD45d1d2 (d1 and d2 domains of human CD45 linked to an AviTag) (Homo sapiens, biotin (site-specific, on the AviTag); N-linked glycosylation).
T2 construct: CD45, human, extracellular domains d1 and d2; Construct limits may stand in the Supporting Information; also called biotinylated human CD45 domains 1 and 2; source: Expi293F cells, purified
T2 chain: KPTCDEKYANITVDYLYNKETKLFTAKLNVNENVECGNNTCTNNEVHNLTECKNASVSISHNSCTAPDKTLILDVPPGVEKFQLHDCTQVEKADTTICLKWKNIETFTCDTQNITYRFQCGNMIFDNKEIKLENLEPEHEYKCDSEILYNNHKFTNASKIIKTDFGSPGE
In words: ELISA; nanobodies coated on a plate, incubated with the indicated concentrations of biotinylated CD45d1d2; colorimetric detection (absorbance at 450 nm). To be noted: both partners purified.

T1 sequence (P08575 other isoform, or with tags, fused parts or gaps): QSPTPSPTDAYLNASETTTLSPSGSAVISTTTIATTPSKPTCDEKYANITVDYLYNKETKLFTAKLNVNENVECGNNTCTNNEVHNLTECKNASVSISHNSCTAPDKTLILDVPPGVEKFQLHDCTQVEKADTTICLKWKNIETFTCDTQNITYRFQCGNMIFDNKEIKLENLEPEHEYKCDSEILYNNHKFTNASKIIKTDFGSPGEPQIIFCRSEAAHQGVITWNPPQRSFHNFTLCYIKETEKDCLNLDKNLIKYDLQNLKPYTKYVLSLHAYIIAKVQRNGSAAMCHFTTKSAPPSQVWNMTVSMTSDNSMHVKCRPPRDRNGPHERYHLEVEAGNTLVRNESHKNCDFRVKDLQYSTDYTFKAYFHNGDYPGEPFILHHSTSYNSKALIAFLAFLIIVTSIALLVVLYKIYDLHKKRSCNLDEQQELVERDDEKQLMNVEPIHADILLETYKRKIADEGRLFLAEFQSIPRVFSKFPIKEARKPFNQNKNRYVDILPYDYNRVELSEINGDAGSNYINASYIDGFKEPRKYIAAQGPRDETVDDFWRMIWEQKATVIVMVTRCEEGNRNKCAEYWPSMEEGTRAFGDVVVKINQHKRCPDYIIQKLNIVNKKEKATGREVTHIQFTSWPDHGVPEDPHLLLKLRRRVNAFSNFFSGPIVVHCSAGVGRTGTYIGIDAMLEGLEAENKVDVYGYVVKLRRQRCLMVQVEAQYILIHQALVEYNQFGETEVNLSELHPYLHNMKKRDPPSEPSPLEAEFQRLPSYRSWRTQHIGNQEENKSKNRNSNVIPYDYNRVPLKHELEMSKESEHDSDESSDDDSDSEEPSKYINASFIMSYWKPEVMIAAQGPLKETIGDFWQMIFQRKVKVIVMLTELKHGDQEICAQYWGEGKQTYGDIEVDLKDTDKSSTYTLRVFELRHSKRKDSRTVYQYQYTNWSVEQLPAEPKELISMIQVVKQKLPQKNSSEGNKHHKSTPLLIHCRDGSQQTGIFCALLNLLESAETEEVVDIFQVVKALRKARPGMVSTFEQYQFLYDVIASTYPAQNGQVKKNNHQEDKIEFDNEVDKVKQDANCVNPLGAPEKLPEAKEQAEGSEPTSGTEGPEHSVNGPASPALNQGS

B1: anti-CD45 nanobody 2H5 (VHH)
VHH: QVQLQESGGGLVQTGGSLTLSCVASGGTFSSYAMGWFRQAPGKEREFVAAIGGSGDSTYYADSVKGRFTISRDNAKNSVYLQMNSLKPEDTAVYYCQADPTMFHKLYYGINPNEYDYWGQGTLVTVSS
notes: VHH 2H5 against the d1d2 region of human CD45, from llama immunization; the source of the nanobodies is a cited earlier work
As to B1, the binding result in assay [1] and in assay [2] was “binds” each time.
